Paper doi:10.1101/2025.05.02.651258, “The LOTUS domain of Oskar promotes localisation of both protein and mRNA components of Drosophila germ plasm” (bioRxiv, 2025)

Tests used:
[1] = molecular target: the molecule itself; test: SEC; analytical SEC, Superose 6 PC 3.2/30, 5.0 mg/mL, 20 mM Tris pH 8.0 with 200, 500 or 1000 mM NaCl, 0.05 mL/min; apparent molecular weight from gel filtration standards
[2] = molecular target: the molecule itself; test: SEC-MALS; Superdex 75 10/300 GL, 10 mg/mL, 20 mM Tris pH 8.0, 200 mM NaCl; data not shown

B1: D. melanogaster Oskar LOTUS domain, residues 139-241 (Losk139–241), purified (domain or fragment)
chain: MTIIESNYISVREEYPDIDSEVRAILLSHAQNGITISSIKSEYRKLTGNPFPLHDNVTDFLLTIPNVTAECSESGKRIFNLKASLKNGHLLDMVLNQKERTSDLEVLFQ
notes: Oskar, D. melanogaster, LOTUS domain residues 139-241 (Losk139–241); numbers on the long isoform (1-606); remnant of the 3C protease cleavage site left at the C-terminus after removal of the decahistidine tag; Crystal form 4 was grown from HgCl2-derivatised protein; also called fly LOTUS domain; source: E. coli BL21(DE3), purified (Ni-NTA, 3C protease cleavage, gel filtration); not shown: His10, …
stoichiometry N [1]: ~2 | stoichiometry N [2]: 2
